{"source": "patent US6586197B1", "about": "“Methods and materials for identifying novel pesticide agents” (priority 1999, dated 2003)", "key": {"[1]": {"tested_on": "enzymatic activity of Sf21 cells transfected with pHSP-HR5", "experiment": "Aminopeptidase N activity assay (L-leucine-p-nitroanilide), homogenate of pHSP-HR5-transfected Sf21 cells", "type": "biochemical, Spodoptera frugiperda", "details": "homogenate 50 μg of proteins, pHSP-HR5-transfected Sf21 cells (FIG. 9, column D)", "description": "(§1) Sf21 cells transfected with pHSP120 or pHSP-HR5 were collected and washed two times with PBS. The cells were suspended in 2 ml PBS and then homogenized with Potter-Helvehjem homogenizer. The cell homogenate was centrifuged at 27,000×g for 15 min at 4° C. The pellet was re-suspended in 2 ml of 10 mM Tris-HCl, 150 mM NaCl, pH 7.4. APN activity was assayed with L-leucine-p-nitroanilide as substrate as described previously (4). Briefly, the APN substrate (50 μl 6.8 mg/ml in methanol) was mixed with 1.4 ml of substrate buffer (10 mM Tris-HCl, 150 mM NaCl pH 7.4), and then the homogenate (50 μg of proteins) was added. The sample solution was incubated at 37° C. for 2 h. The level of APN activity was then determined by spectrophotometric measurement of free p-nitroanilide at […].\n(§2) Sf21 cells transfected with pHSP120 or pHSP-HR5 were collected and homogenized. The homogenate (50 μg of proteins) was tested for APN activity. A high level of APN activity was present in the cells transfected pHSP120 compared with that in the cells transfected with pHSP-HR5 (FIG. 9, columns A and C)."}, "[2]": {"tested_on": "expressed M sexta APN1a", "experiment": "Aminopeptidase N activity assay (L-leucine-p-nitroanilide), homogenate of pHSP120-transfected Sf21 cells", "type": "biochemical, Manduca sexta", "details": "homogenate 50 μg of proteins, pHSP120-transfected Sf21 cells (FIG. 9, column B)", "description": "as §1, §2"}, "[3]": {"molecular_target": "T1, purified 115 kDa APN from Manduca sexta (Manduca sexta, UniProt Q11001)", "T1 sequence (Q11001 36-968 limits assumed)": "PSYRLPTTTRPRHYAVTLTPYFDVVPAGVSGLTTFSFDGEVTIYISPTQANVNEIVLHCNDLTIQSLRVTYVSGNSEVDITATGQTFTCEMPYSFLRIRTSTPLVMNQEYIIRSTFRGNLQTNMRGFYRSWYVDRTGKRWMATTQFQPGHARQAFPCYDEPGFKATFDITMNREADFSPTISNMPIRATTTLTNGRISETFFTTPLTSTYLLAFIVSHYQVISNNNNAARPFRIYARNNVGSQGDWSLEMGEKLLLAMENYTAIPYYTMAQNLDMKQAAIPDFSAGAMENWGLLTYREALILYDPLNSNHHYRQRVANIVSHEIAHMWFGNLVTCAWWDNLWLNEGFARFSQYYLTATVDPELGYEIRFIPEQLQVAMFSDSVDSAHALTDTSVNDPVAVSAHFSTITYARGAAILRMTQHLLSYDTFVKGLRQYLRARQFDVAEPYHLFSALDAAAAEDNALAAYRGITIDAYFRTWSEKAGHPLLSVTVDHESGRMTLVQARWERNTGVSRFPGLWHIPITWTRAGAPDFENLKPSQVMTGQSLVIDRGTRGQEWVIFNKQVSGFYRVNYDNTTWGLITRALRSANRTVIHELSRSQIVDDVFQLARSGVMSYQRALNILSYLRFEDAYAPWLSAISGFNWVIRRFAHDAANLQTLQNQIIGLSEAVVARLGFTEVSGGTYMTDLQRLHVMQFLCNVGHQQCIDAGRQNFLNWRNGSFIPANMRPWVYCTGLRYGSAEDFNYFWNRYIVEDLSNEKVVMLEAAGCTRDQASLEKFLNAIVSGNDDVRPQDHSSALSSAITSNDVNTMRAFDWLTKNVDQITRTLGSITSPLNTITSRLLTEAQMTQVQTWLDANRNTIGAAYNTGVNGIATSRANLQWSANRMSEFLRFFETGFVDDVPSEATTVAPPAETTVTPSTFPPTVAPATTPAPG", "details": "Masson et al., 1995; cited from earlier work"}, "[4]": {"molecular_target": "T2, M. sexta 120 kDa APN (Manduca sexta, UniProt Q11001)", "T2 sequence (Q11001 36-968)": "T1 sequence (Q11001 36-968 limits assumed)", "details": "previous studies (Knight 1994; Sangadala 1994; Masson 1995; Lu and Adang 1996); cited from earlier work"}, "[5]": {"tested_on": "expressed 120 kDa APN from Sf21 cells", "experiment": "Toxin affinity chromatography and anti-APN immunoblot, Sf21 cells", "type": "binding, Manduca sexta", "details": "CHAPS-solubilized Sf21 cells, anti-APN immunoblot (FIG. 13)", "description": "Affinity purification method of M. sexta 120 kDa APN from Sf21 cells or M. sexta midgut BBMV was described in Luo et al (1996). Briefly, Cry1Ac, Cry1Ba and Cry3a toxins (200 μg) were coupled to 400 μl of cyanogen bromide-activated Sepharose 4B in 20 mM Na2CO3, pH 9.6. M sexta BBMV (1 ml, 3.4 mg/ml proteins) or Sf21 cells (10^7 cells) were solubilized with 2% 3-[(3-cholamidopropyl) dimethylammoniol]-1-propane-sulphonate (CHAPS) in buffer A (50 mM Na2CO3, pH 9.6, 200 mM NaCl, 5 mM EGTA, 0.1% CHAPS). Insoluble material was removed by centrifugation at 27,000×g for 30 min at 4° C. CHAPS-solubilized BBMV (1 ml) or Sf21 cells (2 ml) were then added to the toxin-coupled Sepharose beads equilibrated with Buffer A. The mixture was incubated at 4° C. overnight. After washing with 100 ml of Buffer A, the binding protein-toxin complex was dissociated from the beads by heating in SDS-PAGE sample buffer at 100° C. for 5 min. The samples were separated by 8% SDS-PAGE, and then electrophoretically transferred to nitrocellulose membrane (Millipore Corp., Bedford, Mass.) in transfer buffer (Towbin et al., 1979) at 4° C. overnight. The membrane was blocked with 5% non-fat dry milk in PBST at room temperature for 1 h, and then probed with anti-APN antibody (0.5 μg/ml) in PBST containing 0.1% non-fat dry milk for 2 h. […]"}, "[6]": {"tested_on": "Sf21 cells transfected with pHSP-HR5", "experiment": "Toxicity assay (Trypan blue cell mortality), control-vector Sf21 cells", "details": "2 h", "description": "The pHSP120 plasmid DNA was isolated and purified using a Plasmid Maxi Kit (Qiagen, Valencia, Calif.). Sf21 (IPLB-Sf21) cells (Vaughn et al., 1977) were plated at 1.8×10^6 cells per plate (60 mm diameter) prior to transfection with pHSP120 DNA. Plasmid DNA (10 μg) was mixed with 5 μl of Lipofectin reagent (Gibco BRL, Gaithersburg, Md.) and combined with 1 ml of TC-100 medium (Gibco BRL, Gaithersburg, Md.). The mixture was incubated at room temperature for 15 min. Following 3 washes with TC-100 medium, the DNA/Lipofectin mixture was added to the cells, and then the cells were incubated at room temperature for 4 h on a rocker. After removal of DNA/Lipofectin mixture, TC-100 with 10% fetal bovine serum (4 ml) was added to the plates and the cells were incubated at 27° C. overnight. […] After incubation at 27° C. for 24 h, the cells were collected and analyzed using immunofluorescence localization and Western blotting.\nSf21 cells (1.8×10^6) were grown and heat-shocked as described above. […] Cell mortality was determined by trypan blue staining as described by Thomas and Ellar (1983).\n(§3) Thetoxicity of three Cry1toxins to Sf21 cells expressing M sexta 120 APN was determined. A single concentration of Cry1toxins (40 μg/ml) was used and the cell mortality was measured by Trypan blue staining (Thomas and Ellar 1983)."}, "[7]": {"tested_on": "Sf21 cells transfected with pHSP120", "experiment": "Toxicity assay (Trypan blue cell mortality), Sf21 cells expressing M. sexta 120 kDa APN", "details": "2 h", "description": "The pHSP120 plasmid DNA was isolated and purified using a Plasmid Maxi Kit (Qiagen, Valencia, Calif.). Sf21 (IPLB-Sf21) cells (Vaughn et al., 1977) were plated at 1.8×10^6 cells per plate (60 mm diameter) prior to transfection with pHSP120 DNA. Plasmid DNA (10 μg) was mixed with 5 μl of Lipofectin reagent (Gibco BRL, Gaithersburg, Md.) and combined with 1 ml of TC-100 medium (Gibco BRL, Gaithersburg, Md.). The mixture was incubated at room temperature for 15 min. Following 3 washes with TC-100 medium, the DNA/Lipofectin mixture was added to the cells, and then the cells were incubated at room temperature for 4 h on a rocker. After removal of DNA/Lipofectin mixture, TC-100 with 10% fetal bovine serum (4 ml) was added to the plates and the cells were incubated at 27° C. overnight. Expression of 120 kDa APN in Sf21 cells was induced by heat-shocking cells at 42° C. for 30 min the following day. After incubation at 27° C. for 24 h, the cells were collected and analyzed using immunofluorescence localization and Western blotting.\nSf21 cells (1.8×10^6) were grown and heat-shocked as described above. […] The freshly prepared toxin solution (1 ml) was added to each Sf21 cell plate and incubated at room temperature for 2 h. Cell mortality was determined by trypan blue staining as described by Thomas and Ellar (1983).\nas §3"}, "[8]": {"tested_on": "expressed 120 kDa APN on Sf21 cells transfected with pHSP120", "experiment": "Immunofluorescence binding of rhodamine-labeled toxins to Sf21 cells (confocal microscopy), pHSP120", "set-up": "species or system Manduca sexta", "details": "toxin 1 μg/ml, fixed Sf21 cells transfected with pHSP120", "description": "Growth of B. thuringiensis strains, trypsin activation, and fast-performance liquid chromatography (Pharmacia) purification of Cry1Ac, […] and Cry3a toxins were done as previously described (Garczynski et al 1991; Lu and Adang 1996). […] The purified Cry1Ac and Cry1Ba (200 μg) were labeled with 5-(and-6)-carboxytetramethylrhodamine, succinimidyl ester [5(6)-TAMRA SE] (Molecular Probe, Eugene, Oreg.) according to the manufacturer's instructions. Briefly, 5(6)-TAMRA (5 mg) were dissolved in 0.5 ml of Dimethylformamide (DMF) immediately before starting the labeling. The dye solution (100 μl) was slowly added into 500 μl of toxin sample (200 μg toxins) and incubated for 1 h at room temperature. The reaction was stopped by adding 0.1 ml of 1.5 M hydroxylamine, pH 8.5, and then the mixture was incubated. for 1h at room temperature. […]\nSf21 cells were plated onto a microscope cover glass (18×18 mm) in a tissue culture dish (60×15 mm diameter), and then transfected and heat-shocked as described above. […] Immunostained cells were observed using fluorescence microscopy or fluorescence confocal microscopy (Center for Advanced Ultrastructural Research, University of Georgia).\nSince the expressed 120 kDa APN located on Sf21 cell surfaces, we examined the binding of Cry1toxins to Sf21 cells using double immunofluorescence staining. […] And then cells were viewed by fluorescence confocal microscopy."}}}
{"compound": "CC(C)C[C@@H](N)[C@H](O)C(=O)N[C@H](C(=O)N[C@H](C(=O)N[C@@H](CC(=O)O)C(=O)O)C(C)C)C(C)C", "note": "[Amastatin]", "values": [{"measurement": "Effect on APN activity", "setting": "[1]", "result": "did not show significantly impact"}, {"measurement": "Effect on APN activity", "setting": "[2]", "result": "greatly reduced"}]}
{"compound": "Cry1Aa: Bacillus thuringiensis Cry1 δ-endotoxin (literature)", "values": [{"measurement": "Binding to purified 115 kDa APN", "setting": "[3]", "result": "bind"}, {"measurement": "Specific binding to M. sexta 120 kDa APN", "setting": "[4]", "result": "bound specifically"}]}
{"compound": "Cry1Ab: Bacillus thuringiensis Cry1 δ-endotoxin (literature)", "values": [{"measurement": "Binding to purified 115 kDa APN", "setting": "[3]", "result": "bind"}, {"measurement": "Specific binding to M. sexta 120 kDa APN", "setting": "[4]", "result": "bound specifically"}]}
{"compound": "Cry1Ac: trypsin-activated, purified B. thuringiensis Cry1Ac toxin", "values": [{"measurement": "Binding to purified 115 kDa APN", "setting": "[3]", "result": "bind"}, {"measurement": "Binding of APN to toxin affinity column", "setting": "[5]", "result": "did not bind"}, {"measurement": "Mortality (%) (±SE), Cells transfected with pHSP-HR5", "setting": "[6]; 40 μg/ml toxin in insect PBS, Trypan blue (0.1%) staining, means of three assays (±standard error), control vector", "result": "20.6 (±0.5) %"}, {"measurement": "Toxicity in words", "setting": "[6]; 40 μg/ml toxin, Sf21 cells transfected with pHSP-HR5", "result": "low toxicity"}, {"measurement": "Specific binding to M. sexta 120 kDa APN", "setting": "[4]", "result": "bound specifically"}, {"measurement": "Mortality (%) (±SE), Cells transfected with pHSP 120", "setting": "[7]; 40 μg/ml toxin in insect PBS, Trypan blue (0.1%) staining, means of three assays (±standard error)", "result": "20.0 (±0.4) %"}, {"measurement": "Difference in mortality between pHSP120- and pHSP-HR5-transfected Sf21 cells", "setting": "[7]; 40 μg/ml toxin", "result": "no significant difference"}, {"measurement": "Toxicity in words", "setting": "[7]; 40 μg/ml toxin, Sf21 cells transfected with pHSP120", "result": "low toxicity"}, {"measurement": "Binding of rhodamine-labeled toxin (immunofluorescence)", "setting": "[8]", "result": "does not bind"}]}
